Sequences and labels used below:
B1: Xkis-domain, standalone X-domain of the kistamicin NRPS (residues 1024-1493) (domain or fragment, UniProt A0A1V0AGC2 1024-1493, looked up)
chain: RPVLGPGRRADLDPDGPLPVTARQRRMWLLSRIGDEAEGLHVRVALRLRGRLDRDALAGALADVGGRHEILRTRFPGSRRDVRQEILDAETGRPPLEICPATEDELPGLLADRAGRPFDLTGEVPWRAHLFPLTDREQVLLVVAHRIAADEESVDVLVRDLAAAYGARREGRIPERAPLALQFADYALWERELLAGADERDSLIWDQIEFWRDRLAGGDDEHADTSAPPAGRARPVLPSRRAGSVPLRLPADSHARLLEAARSAGGTMFTAVHAALAMLLSRLDGRTSVTIGTRLPRDEEQTGLVPMVGPFSRWLALPVDLSGDPAFTEILGRARDVSEDAHRHQDLPFERLAELVVPVPSITRHPIFQVALQLDEDDVRPEESWALPGLRTSPVPMPEEAMELDLWLKLLDHRTDEGDADGLVGSLVYAEDRFDRAGAEALAQRLVALLEQVGAAPEVRLSQVDVPGSE
notes: X-domain (Oxy-recruiting domain) of the last module of the kistamicin NRPS, residues 1024-1493 of UniProt A0A1V0AGC2; Unlabelled form used for ITC and crystallisation; also called standalone Xkis domain; source: E. coli ArcticExpress, expressed as MBP fusion, purified (Ni-NTA, TEV cleavage, second Ni-NTA); not shown: His6, N-terminal, cleaved; MBP, N-terminal, cleaved
B2: OxyCkis (KisO), cytochrome P450 Oxy enzyme from kistamicin biosynthesis (enzyme, UniProt A0A1V0AGL8 1-426, looked up)
chain: MTDVTPGFVVDEATQVVTPEPDFIITRKHLEPTDSLRALRKRGALLKINGHALGSLDVDGTAYIWLATGYEVVRRILGDHENFSTRRRLTAGEPIDGTGVTPVKELVGHLMNLDPPEHTRLRRMLTPEFTLRRIRRLEPVISEIIEDHLNLIEDAGPPADLQSMYAEPVGGATLCELIGVPRDDRAEFLRRCGLHLDMSRGSKRRAADSMAFNGYLDHLIGLQRKRPDDGFIGMLVQEHGDDVTDDELRGMITVVLLAGLDNISGMLGLGVLALLEHPEQIPVIFEERAVTDRAVDELTRYLSITFQPTPRMALNDVVVDGQTIKAGEIVVCSLPMANRDEALTPDPDVLDLRRQLAGHVGFGHGVHHCLGSSVSRVVLRLAYQALWRRFPDLRLAVPPEDIVFRKAITHGPKRLPVTWGPSAATR
notes: OxyCkis (KisO), cytochrome P450 from the kistamicin gene cluster of Actinomadura parvosata subsp. kistnae; synthetic codon-optimised gene in pET28a; Heme protein; also called kistamicin OxyC; source: E. coli ArcticExpress, purified (Ni-NTA, anion exchange, size exclusion)
B3: OxyAkis (KisN), cytochrome P450 Oxy enzyme from kistamicin biosynthesis (enzyme)
chain: MVAPEHRVLHLRDRLDLAAELKLLCERGPLVRIPLEDGSAVHWFALGYDVVREVLGSEKFDKRVIGTHFNHQEMALPGNLLQLDPPEHTRLRRMVAPAYSVRRMQALEPRVQAIVDDHLDTMASTGPPVEFLREVAGPMAARVACEFLGIPLDDRGELIRLTAHRGGKRRRVLNGHAYLAYMRELAARLRRDPGDGMLGMVARDHGADISDEELAGLCAVVMNSSVEQTESCLAAGTLLLLEHPEQFALLRERPELGEQAVEEIVRYLSVFEGLDPRTATEDVEIGGQVIKKGEAVFCSLLAANRADPALDGFDITRKESRHVAFGHGIHHCLGAPLARMELRIAFTTLVSRFPSLRTAVPAEEIRFRPPSSNVFTLLELPLTW
notes: OxyAkis (KisN), cytochrome P450 from the kistamicin gene cluster of Actinomadura parvosata subsp. kistnae; synthetic codon-optimised gene in pET28a; Heme protein; also called kistamicin OxyA; source: E. coli ArcticExpress, purified (Ni-NTA, anion exchange, size exclusion)

Assay in all cases: ITC; 1.27 mM X-domain injected into 300-400 µM OxyA/OxyC; 25 °C, stirring 300 rpm; 50 mM phosphate pH 7.4, 150 mM NaCl, 5% v/v glycerol; single binding site model; single titration (n = 1)
Holding throughout (conditions): both partners purified

Test [1] deals with B3.
Test [2] addresses B2.
For test [3], the target named is B1.

On to B1, for which the “stoichiometry N” value in test [1] and in test [2] was 1 throughout.

B2 came in with an equilibrium dissociation constant (Kd) in test [3] of 6.1 µM.

For the molecule B3, in test [3], the dissociation constant Kd came to 10.4 µM.

The values above are taken from publication PMC6565677, “Kistamicin biosynthesis reveals the biosynthetic requirements for production of highly crosslinked glycopeptide antibiotics” (Nature Communications, 2019).
